Biological target: fibronectin 70 kDa N-terminal fragment
Test: SPR; BIAcore X; FN 70 kDa fragment immobilised on a CM5 chip; HGF (30–500 nM) injected in HEPES saline pH 7.4 with 1 mM MgCl2, 2 mM CaCl2; equilibrium and Scatchard analysis; apparent Kd; n = 3

- Kd: 0.3 µM
- Kd of the high affinity site (two-site model): 0.015 µM
- Kd of the low affinity site (two-site model): 4 µM
Substance: hepatocyte growth factor (from UniProt P14210 32-728) (ligand)
